B1: Ame55 mutant, light chain 95A (antibody, V domains shown)
VH: EVQLVQSGAEVKKPGESLKISCKGSGYSFTSYWIGWVRQMPGKGLEWMGIIYPGDSDTRYSPSFQGQVTISADKSISTAYLQWSSLKASDTAMYYCARGIIYPSNVAVWGQGTLVTVSS
VL: SYELTQPPSVSVAPGQTARITCSGDALGDKYASWYQQKPGQAPVLVIYEDSKRPSGIPERFSGSNSGNTATLTISGTQAEDEADYYCSVWDGDWAMPVFGGGTKLTVLG
notes: Mutant of Ame55
B2: Ame55 mutant, light chain 97A (antibody, V domains shown)
VH: EVQLVQSGAEVKKPGESLKISCKGSGYSFTSYWIGWVRQMPGKGLEWMGIIYPGDSDTRYSPSFQGQVTISADKSISTAYLQWSSLKASDTAMYYCARGIIYPSNVAVWGQGTLVTVSS
VL: SYELTQPPSVSVAPGQTARITCSGDALGDKYASWYQQKPGQAPVLVIYEDSKRPSGIPERFSGSNSGNTATLTISGTQAEDEADYYCSVWDGDWGMAVFGGGTKLTVLG
notes: Mutant of Ame55
B3: AmeA2 (Ame55 mutant, light chain 89A(A2)) (antibody, V domains shown)
VH: EVQLVQSGAEVKKPGESLKISCKGSGYSFTSYWIGWVRQMPGKGLEWMGIIYPGDSDTRYSPSFQGQVTISADKSISTAYLQWSSLKASDTAMYYCARGIIYPSNVAVWGQGTLVTVSS
VL: SYELTQPPSVSVAPGQTARITCSGDALGDKYASWYQQKPGQAPVLVIYEDSKRPSGIPERFSGSNSGNTATLTISGTQAEDEADYYCSAWDGDWGMPVFGGGTKLTVLG
notes: Mutant of Ame55
B4: Ame55 mutant, light chain 95S (antibody, V domains shown)
VH: EVQLVQSGAEVKKPGESLKISCKGSGYSFTSYWIGWVRQMPGKGLEWMGIIYPGDSDTRYSPSFQGQVTISADKSISTAYLQWSSLKASDTAMYYCARGIIYPSNVAVWGQGTLVTVSS
VL: SYELTQPPSVSVAPGQTARITCSGDALGDKYASWYQQKPGQAPVLVIYEDSKRPSGIPERFSGSNSGNTATLTISGTQAEDEADYYCSVWDGDWSMPVFGGGTKLTVLG
notes: Mutant of Ame55
B5: AmeA1C3 (the mutated light chain has Lys at site 26 and Ser at site 89) (antibody, V domains shown)
VH: EVQLVQSGAEVKKPGESLKISCKGSGYSFTSYWIGWVRQMPGKGLEWMGIIYPGDSDTRYSPSFQGQVTISADKSISTAYLQWSSLKASDTAMYYCARGIIYPSNVAVWGQGTLVTVSS
VL: SYELTQPPSVSVAPGQTARITCSGDKLGDKYASWYQQKPGQAPVLVIYEDSKRPSGIPERFSGSNSGNTATLTISGTQAEDEADYYCSSWDGDWGMPVFGGGTKLTVLG
notes: Mutant of Ame55; also called 26K + 89S
B6: Ame55 mutant, light chain G28P (antibody, V domains shown)
VH: EVQLVQSGAEVKKPGESLKISCKGSGYSFTSYWIGWVRQMPGKGLEWMGIIYPGDSDTRYSPSFQGQVTISADKSISTAYLQWSSLKASDTAMYYCARGIIYPSNVAVWGQGTLVTVSS
VL: SYELTQPPSVSVAPGQTARITCSGDALPDKYASWYQQKPGQAPVLVIYEDSKRPSGIPERFSGSNSGNTATLTISGTQAEDEADYYCSVWDGDWGMPVFGGGTKLTVLG
notes: Mutant of Ame55
B7: AmeA1C1 (the mutated light chain has Gly at site 26 and Ser at site 89) (antibody, V domains shown)
VH: EVQLVQSGAEVKKPGESLKISCKGSGYSFTSYWIGWVRQMPGKGLEWMGIIYPGDSDTRYSPSFQGQVTISADKSISTAYLQWSSLKASDTAMYYCARGIIYPSNVAVWGQGTLVTVSS
VL: SYELTQPPSVSVAPGQTARITCSGDGLGDKYASWYQQKPGQAPVLVIYEDSKRPSGIPERFSGSNSGNTATLTISGTQAEDEADYYCSSWDGDWGMPVFGGGTKLTVLG
notes: Mutant of Ame55; also called 26G + 89S
B8: Ame55 mutant, light chain 96A (antibody, V domains shown)
VH: EVQLVQSGAEVKKPGESLKISCKGSGYSFTSYWIGWVRQMPGKGLEWMGIIYPGDSDTRYSPSFQGQVTISADKSISTAYLQWSSLKASDTAMYYCARGIIYPSNVAVWGQGTLVTVSS
VL: SYELTQPPSVSVAPGQTARITCSGDALGDKYASWYQQKPGQAPVLVIYEDSKRPSGIPERFSGSNSGNTATLTISGTQAEDEADYYCSVWDGDWGAPVFGGGTKLTVLG
notes: Mutant of Ame55

The test concerns the target T1, EGFR-Fc fusion protein (recombinant EGFR extracellular region-Fc) (human, UniProt P00533 25-645).
T1 construct: extracellular domain; not shown: Fc part supplied by vector pABG1
The test is described as follows: BLI ForteBio QKe, biotinylated EGFR-Fc on streptavidin sensor, antibody 20 nM; fold reduction of affinity, parent Ame55 = 1.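 Also: parent antibody affinity set as 1, with values giving the fold drop in affinity of each mutant antibody relative to that parent.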
On to B1, for which the Affinity change is more than 10 fold.

For B2, the Affinity change is more than 10 fold. Then B3, with 0.25 fold; and B4, with more than 10 fold. Then B5, with less than 0.2 fold; and B6, with more than 100 fold; and B7, with less than 0.3 fold. The same measure for B8: more than 10 fold.

Values taken from patent publication US20150274828A1 (SHANGHAI SERUM BIOTECHNOLOGY, published 2015).
